Measured values as given in patent US20240182536A1 (MURAL ONCOLOGY, published 2024).
Residue numbers refer to the chain shown, from its start.

T1: IL-18 variant G3T, M60K (human, UniProt Q14116 37-193)
T1 chain: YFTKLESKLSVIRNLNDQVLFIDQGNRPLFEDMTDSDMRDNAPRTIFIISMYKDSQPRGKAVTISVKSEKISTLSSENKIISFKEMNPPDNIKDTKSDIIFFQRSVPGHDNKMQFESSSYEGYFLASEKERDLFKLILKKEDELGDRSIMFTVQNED

T2: IL-18 variant G3V, M60K (human, UniProt Q14116 37-193)
T2 chain: T1 chain with T3V

T3: IL-18 variant G3T, M60K, D157E (human, UniProt Q14116 37-192)
T3 chain: T1 chain with D157E

T4: WT human IL-18 (human, UniProt Q14116 37-193)
T4 sequence: T1 chain with T3G, M38C, K60M, S68C, S76C, S127C

T5: IL-18 variant G3E, K53S (human, UniProt Q14116 37-193)
T5 chain: T1 chain with T3E, K53S, K60M

T6: IL-18 variant G3T, K53S (human, UniProt Q14116 37-193)
T6 chain: T1 chain with K53S, K60M

T7: IL-18 variant G3H, N91V, K53S (human, UniProt Q14116 37-193)
T7 chain: T1 chain with T3H, K53S, K60M, N91V

T8: IL-18 variant G3R, K53S (human, UniProt Q14116 37-193)
T8 chain: T1 chain with T3R, K53S, K60M

B1: human IL-18 binding protein (IL-18BP) (other, UniProt O95998 31-194, looked up)
chain: TPVSQTTTAATASVRSTKDPCPSQPPVFPAAKQCPALEVTWPEVEVPLNGTLSLSCVACSRFPNFSILYWLGNGSFIEHLPGRLWEGSTSRERGSTGTQLCKALVLEQLTPALHSTNFSCVLVDPEQVVQRHVVLAQLWAGLRATLPPTQEALPSSHSSPQQQG
B2: mouse IL-18BP (other, UniProt Q9Z0M9 29-193, looked up)
chain: TSAPQTTATVLTGSSKDPCSSWSPAVPTKQYPALDVIWPEKEVPLNGTLTLSCTACSRFPYFSILYWLGNGSFIEHLPGRLKEGHTSREHRNTSTWLHRALVLEELSPTLRSTNFSCLFVDPGQVAQYHIILAQLWDGLKTAPSPSQETLSSHSPVSRSAGPGVA

Columns and labels:
Assay in all cases: cell-based or functional assay
WT IL-18-MonoFc = WT IL-18-MonoFc (human)
IL-18 variant G3T, M60K = target: T1, IL-18 variant G3T, M60K
IL-18 variant G3V, M60K = target: T2, IL-18 variant G3V, M60K
[1] = target: T3, IL-18 variant G3T, M60K, D157E
WT human IL-18 [2] = target: T4, WT human IL-18
IL-18 variant G3E, K53S [3] = target: T5, IL-18 variant G3E, K53S
IL-18 variant G3T, K53S = target: T6, IL-18 variant G3T, K53S
[4] = target: T7, IL-18 variant G3H, N91V, K53S
WT human IL-18 [5] = target: T4, WT human IL-18; remark: listed apart in the source
IL-18 variant G3E, K53S [6] = target: T5, IL-18 variant G3E, K53S
[7] = target: T7, IL-18 variant G3H, N91V, K53S
WT human IL-18 [8] = target: T4, WT human IL-18; remark: listed apart in the source
IL-18 variant G3R, K53S = target: T8, IL-18 variant G3R, K53S

Sequence of WT IL-18-MonoFc (human) (chain, as listed by the source): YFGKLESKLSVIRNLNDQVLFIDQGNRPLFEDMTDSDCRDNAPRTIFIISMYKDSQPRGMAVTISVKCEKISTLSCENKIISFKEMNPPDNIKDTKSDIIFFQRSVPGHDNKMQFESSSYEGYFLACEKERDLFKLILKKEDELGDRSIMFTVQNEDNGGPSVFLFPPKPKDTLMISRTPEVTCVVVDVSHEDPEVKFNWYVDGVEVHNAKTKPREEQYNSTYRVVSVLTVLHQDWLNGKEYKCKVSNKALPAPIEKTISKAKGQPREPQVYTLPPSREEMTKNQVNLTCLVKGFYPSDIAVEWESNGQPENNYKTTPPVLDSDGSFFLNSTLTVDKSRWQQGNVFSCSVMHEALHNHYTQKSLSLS

| Binder | Potency - with IL-18BP (IC50), IFN gamma expression in PBMCs (WT IL-18-MonoFc) | Potency - with IL-18BP (IC50), IFN gamma expression in PBMCs (IL-18 variant G3T, M60K) | Potency - with IL-18BP (IC50), IFN gamma expression in PBMCs (IL-18 variant G3V, M60K) | Potency - with IL-18BP (IC50), IFN gamma expression in PBMCs [1] | Potency - with IL-18BP (IC50), IFN gamma expression in PBMCs (WT human IL-18 [2]) | Potency - with IL-18BP (IC50), IFN gamma expression in PBMCs (IL-18 variant G3E, K53S [3]) | Potency - with IL-18BP (IC50), IFN gamma expression in PBMCs (IL-18 variant G3T, K53S) | Potency - with IL-18BP (IC50), IFN gamma expression in PBMCs [4] | IC50 (read off the curve); IFN gamma from human PBMCs, WT IL-18 at 200 pM, human IL-18BP titrated (WT human IL-18 [5]) | IC50 (read off the curve); IFN gamma from human PBMCs, G3E/K53S at 2000 pM, human IL-18BP titrated; partial inhibition (IL-18 variant G3E, K53S [6]) | IC50 (read off the curve); IFN gamma from human PBMCs, G3H/K53S/N91V at 1000 pM, human IL-18BP titrated; partial inhibition [7] | IC50 (read off the curve); IFN gamma from human PBMCs, WT IL-18 at 200 pM, mouse IL-18BP titrated (WT human IL-18 [8]) | IC50 (read off the curve); IFN gamma from human PBMCs, G3R/K53S at 200 pM, mouse IL-18BP titrated; partial inhibition (IL-18 variant G3R, K53S) |
| --- | --- | --- | --- | --- | --- | --- | --- | --- | --- | --- | --- | --- | --- |
| B1 | 0.096 nM | > 100 nM | > 100 nM | > 100 nM | 0.096 nM | 0.925 nM | 15.3 nM | 24.3 nM | ~100 pM | ~1000 pM | ~20000 pM | – | – |
| B2 | – | – | – | – | – | – | – | – | – | – | – | ~2000 pM | ~10000 pM |
